Measurements published in the RNAGym collection of RNA variant scans (doi:10.7554/elife.80360).

B1: CPEB3 Ribozyme (parent)
chain: GGGGGCCACAGCAGAAGCGUUCACGUCGCGGCCCCUGUCAGAUUCUGGUGAAUCUGCGAAUUCUGCUGU

Variants of: B1
Assay: self-cleavage, relative activity (ratio to wild type); higher = more cleavage; co-transcriptional

Variant	self-cleavage
C34U U36G	0.256
C34U C45U	1.03
C34U C45G	0.992
C34U A52C	0.958
C34U A52U	0.975
C34A G56C	0.438
C34A G56U	0.679
C35G G50U	0.443
C35G G50A	0.36
C34G C63G	0.338
C34G U38A	0.733
C35G U67G	0.574
C35G U67A	0.638
C34A U61C	0.432
C34A U61A	0.466
C35A U53C	0.225
C35A U53G	0.24
C35A U53A	0.266
C34G U43C	0.547
C34G U43G	0.383
C35G U38A	0.417
C35G U38G	0.178
C34U C66A	0.973
C34U C66U	0.977

Variant	self-cleavage
C34G A51U	0.671
C34G A51G	0.625
C34G A51C	0.504
C35U A42U	0.907
C35U A42G	0.943
C35U A42C	0.81
C34G G48U	0.753
C34G G48C	0.722
C34G G48A	0.765
C34G U61C	0.423
C34U U64C	0.971
C34U U64G	0.928
C35G U61A	0.33
C35A A60C	0.193
C35A A60G	0.24
C35G G37U	0.257
C35G G37A	0.219
C35G G37C	0.206
C34G A52U	0.661
C34U G56A	0.955
C34U G56U	0.975
C34U G56C	0.792
C35U A40G	0.914
C34A U43A	0.514

Variant	self-cleavage
C34A U43G	0.479
C34U U49G	0.985
C34U U49A	0.996
C34U U49C	0.998
C35G G68C	0.77
C35G G68A	0.741
C35A A59U	0.227
C35A A59C	0.204
C35A A59G	0.34
C34G U53C	0.562
C34G U53G	0.27
C35A G41A	0.264
C35A G41U	0.277
C34G G65C	0.331
C34G G65U	0.325
C34G U64A	0.384
C34G U64G	0.35
C34G U64C	0.402
C35U C63A	0.77
C35U C63G	0.588
C35U C63U	0.954
C34G U44C	0.578
C34G U44G	0.446
C35A U64G	0.318

Variant	self-cleavage
C35A U64C	0.276
C35A U64A	0.205
C35G G56U	0.307
C35G G56C	0.331
C35G G56A	0.297
C34U G48U	0.983
C35A U55G	0.196
C35A U55C	0.357
C35A U55A	0.244
C35A U36G	0.232
C35A U36C	0.245
C35G U46C	0.378
C35G G47U	0.553
C35G G47C	0.634
C34U G41A	0.828
C35A C63A	0.276
C35G U69A	0.543
C35G U69C	0.77
C35G U69G	0.545
C35U A52G	0.974
C35U A52U	0.973
C35A U49G	0.26
C35A U49A	0.303
C35A U49C	0.342

Variant	self-cleavage
C34G G47C	0.724
C34G G47A	0.769
C34G G47U	0.605
C35A U44C	0.277
C35G C39A	0.362
C34U A40U	0.838
C34U A40G	0.963
C34U A40C	0.602
C34U U61A	0.952
C34U U61G	0.711
C34U A60G	0.789
C34U A60U	0.452
C34U A60C	0.371
C34U A42U	0.924
C34U A42G	0.932
C34U A42C	0.843
C34G	0.74
C34U	0.991
C34U G65C	0.682
C34U G65A	0.919
C35G A59U	0.254
C35A G37U	0.237
C35A G37C	0.254
C35A G37A	0.221

Variant	self-cleavage
C35G G65U	0.223
C35U A59G	0.999
C35U A59C	0.41
C35U A59U	0.564
C35A A42G	0.281
C35A A42U	0.19
C35A A42C	0.229
C34G U46A	0.776
C34G U46G	0.766
C34G C54A	0.368
C34G C54G	0.343
C34G C54U	0.708
C34G G50U	0.839
C34G G50C	0.64
C34G C66G	0.434
C34A G47A	0.915
C34A G47C	0.887
C34A G47U	0.914
C35A U61A	0.231
C35A U61G	0.288
C35G C57A	0.243
C35G C57G	0.212
C35G U49C	0.513
C35A A52G	0.247

Variant	self-cleavage
C35A A52C	0.316
C34A U55C	0.264
C34A U55G	0.357
C34G U67G	0.894
C34G U67C	0.766
C34U G37U	0.247
C34U G37C	0.226
C34U U53G	0.728
C34U U53C	0.943
C35G A60U	0.217
C35G A60G	0.239
C35G A60C	0.348
C35G A42G	0.503
C35G A42U	0.308
C35A U69C	0.417
C35A U69A	0.358
C35U C66A	0.828
C34U C39A	0.834
C34U C39G	0.973
C34U C39U	0.943
C35U A51U	0.904
C35U A51G	0.904
C35U A51C	0.958
